Substrate in data set [1]: N[C@@H](CO)C(=O)O
The experiment in a line: purified protein. In kind it is biochemical, Plasmodium vivax. The conditions noted are these: apparent, 0.4 mM THF fixed, 25 °C, 50 mM HEPES pH 7, aerobic.

Substrate in data set [2]: Nc1nc2c(c(=O)[nH]1)N[C@@H](CNc1ccc(C(=O)N[C@@H](CCC(=O)O)C(=O)O)cc1)CN2
The experiment in a line: purified protein. The format is biochemical, Plasmodium vivax. The conditions noted are these: apparent, 2 mM L-serine fixed, 25 °C, 50 mM HEPES pH 7, aerobic.

B1: PvSHMT (Plasmodium vivax Sal-1) (protein)
chain: MFNNEPLEQIDKELHDILADEEKRQRETINLIASENLTNGAVRECLGNRVSNKYSEGYPKKRYYGGNDFIDKIEELCQKRALEAFNVSDEEWGVNVQPLSGSAANVQALYALVGVKGKIMGMHLCSGGHLTHGFFDEKKKVSITSDMFESKLYKCNSQGYVDLDAVREMALSFKPKVIICGYTSYPRDIDYQQFRQICDEVNAYLFADISHISSFVACNILNNPFLHADVVTTTTHKILRGPRSALIFFNKKRNPGIEQKINSAVFPSFQGGPHNNKIAAVACQLKEVHSPAFKEYTQQVLLNSKALAKALISKQIDLVTNGTDNHLIVVDLRKFSITGSKLQETCNAINVSLNKNTIPSDVDCVSPSGVRIGTPAMTTRGAKEKDMEFIADVLARAIKITVDLQEQYGKKLVDFKKGLPGNAQLQQLKQEVVTWAGALPFP
notes: recombinant, expressed in E. coli BL21(DE3) as in an earlier report; dimer
The Km is the substrate concentration at which the rate is half of its maximum. One may read the kcat as the number of substrate molecules converted per active site and unit of time at saturation. Regarding B1, in the data set “purified protein [1]”, the Km turned out to be 190 ± 20 µM and the kcat was 1.26 ± 0.13 s⁻¹. Moreover, in “purified protein [2]”, the Km was determined as 90 ± 20 µM and the catalytic constant (kcat) was 1.26 ± 0.13 s⁻¹.
